In PMC7466704, “A Peptide-Based Nanocarrier for an Enhanced Delivery and Targeting of Flurbiprofen into the Brain for the Treatment of Alzheimer’s Disease: An In Vitro Study” (Nanomaterials, 2020):
Values joined by “and” are separate entries in the source; they are usually repeats but may differ in a detail not shown here. Equal values may be shown once. Where a SMILES comes first, the peptide text is derived from it. The star is where a group is joined. X1 = CC(C(=O)*)c1ccc(-c2ccccc2)c(F)c1

What was measured:
[1] = Hydrolysis and drug release in acidic lysosome-mimicking buffer; assay type: physicochemical; settings: phthalate buffer pH 4.5; 200 µM; static, 24 h, 37 °C; HPLC
Description: The AEP-K-FP was analysed for the hydrolysis of the amide linkage that coupled the drug molecules to the peptide carrier as well as its amino acids residues. This hydrolysis of the complex was evaluated in an acidic solution mimicking the lysosomal pH conditions that are likely to be found in an inflamed tissue such as that of AD-affected brain tissue. The acidic buffer solution was prepared using a phthalate solution, according to manufacturer’s instructions (Thomas Scientific, Swedesboro, NJ, USA), to obtain a final pH of 4.5. The AEP-K-FP was dissolved in this buffer solution at a concentration of 200 µM and incubated at static conditions for 24 h, 37 °C. Samples were collected and analysed by HPLC.

HUVEC = assay: LDH release assay (loss of cell membrane integrity); assay type: cell-based, human; settings: 25 to 400 µM, 24 and 48 h, absorbance 492 nm, n = 6
Description: The synthesised AEP-K-FP was also tested on human umbilical vein endothelial cells (HUVECs) (ATCC- Manassas, VA, USA) (passages 35 to 39). HUVECs were routinely cultured in an endothelial basal medium (F-12K) containing 0.05 mg/mL of endothelial cell growth supplement (ECGS), 0.1 mg/mL of heparin (Gibco Gaithersburg, MD, USA) and adjusted to a final concentration of 10% v/v of FBS (according to the manufacturer’s recommendations).
(§1) The lactate dehydrogenase (LDH) assay provides an indication of loss of cell membrane integrity and was measured using a Promega CytoTox96® nonradioactive cytotoxicity assay kit (Southampton, UK) after 24 and 48 h of treatment. Absorption was read spectrophotometrically at 492 nm and converted to a percentage of the total LDH released from the positive control (untreated cells with complete lysis).

[2] = test system: brain endothelial cells (bEnd.3); assay: Hoechst 33342/propidium iodide (HPI) staining, cell death assessment; assay type: cell-based, mouse; settings: 100, 300 and 400 µM, 24 h, n = 6
From the text: For cell death assessment, Hoechst 33342 and propidium iodide (PI) salt (HPI) was used (Sigma-Aldrich, Gillingham, UK). These intracellular dyes stain cells in which the Hoechst 33342 binds to DNA, so it is staining the nuclei, whereas PI stains […], resulting in emission of light observed under a fluorescent microscopy. Live cells appear blue with intact membranes on microscopic examination, and those at early and late apoptotic phases appear bright blue with shrinkage. On the other hand, necrotic or damaged cells appear red with ruptured membranes.
HPI dye was prepared by adding 900 µL of DMEM to a mixture solution of 50 µL of 1mg/mL Hoechst 33342 and 50 µL of 2 μg/mL PI in a glass vial. After 24 h of treatment and incubation, which were performed as previously discussed, an epi fluorescent microscopy (Olympus microscope equipped with a Nikon D1X camera, UK) was used to identify and count the cells with distinct morphologies. Cell counts for healthy (living), apoptotic, or necrotic cells were obtained from the same treatment in duplicate wells and from three different fields for each well. Counting of the cells was measured according to their appearance then averaged and expressed as a percent of the total cell number.

bEnd.3 monolayer = assay: Penetration across in vitro BBB model (bEnd.3 monolayer on transwell); assay type: in vitro ADME, mouse; settings: for Increase of percentage permeated relative to free FP: 200 µM; for Percentage permeated across in vitro BBB model (% of applied concentration): bEnd.3 monolayer on 12-transwell inserts, 200 µM in FBS-free, phenol-free culture media, HPLC C18, UV 248 nm
Description: The lyophilised powders of both AEP-K-FP and the free drug (FP) were dissolved in the FBS-free, phenol-free culture media in a concentration of 200 µM. Quantitative analysis of penetration for the free-drug and drug-attached delivery system was undertaken using HPLC (Agilent technology, Stockport, UK). The analysis was carried out using a hydrophobic C18 column (150 × 4.6 mm) at 25 °C and 20 μL of injection volume. The flow rate used was 0.6 mL/min, while the UV-detection wavelength was 248 nm, which is the λmax of FP [9]. The HPLC mobile phase solvents consisted of water/acetonitrile in which the gradient of eluent was run from 75:25 to 25:75 water: acetonitrile over 20 min. The standard curve for each molecule was obtained to calculate the percentage of the amount that transported across the in vitro BBB model.
To establish an in vitro BBB model, bEnd.3 cells were seeded on microporous membrane of 12-transwell inserts with complete culture media in a routine manner. Trans-endothelial electrical resistance (TEER) between apical and basolateral chambers was measured using an Evom voltometer (Sarasota, FL, USA) to determine the day of maximum values indicating tight junction formation, as previously described.

[3] = test system: γ-secretase in C6 glial cells; assay: Quantification of γ-secretase enzyme by sandwich ELISA in treated cells; assay type: cell-based; settings: 200 µM in F-12K, 4 h, cell lysate supernatant, 6 readings, untreated control 28.43 ± 8.32
Description: C6 glial cells (ATCC-) (passages less than 20) were seeded using the complete growth medium, which was made according to the ATCC product sheet by addition of FBS to a final concentration of 2.5% v/v and horse serum (Gibco Gaithersburg, MD, USA) to a final concentration of 15% v/v to F-12K medium. Experiments were performed when cells reached confluence.
The investigation is based on sandwich enzyme-linked immunosorbent assay (ELISA) technology using a γ-secretase enzyme kit (Abbexa Ltd., Cambridge, UK). After confluence, C6 glial cells were treated with 200 µM FP or AEP-K-FP / F-12K solution. Wells containing untreated C6 cells were also included as a control. After 4 h of incubation, cells were washed and lysed to be centrifuged, and the supernatant was collected for assaying the γ-secretase activity immediately, according to kit instructions. Data were expressed as pg/mL, following kit instructions.

bEnd.3 cells = assay: LDH release assay (loss of cell membrane integrity); assay type: cell-based, mouse; settings: 25 to 400 µM, 24 and 48 h, absorbance 492 nm, n = 6
Description: Immortalised brain endothelial cells, bEnd.3 (passages 15–20), were cultured, according to the (manufacture ATCC) product sheet, in a Dulbecco’s modified eagle’s medium (DMEM) high glucose medium with L-pyruvate, containing 10% (v/v) foetal bovine serum (FBS) and 1% (v/v) of 500 U/mL Penicillin/Streptomycin (Gibco, Gaithersburg, MD, USA). Cells were seeded at a density of 5 × 10^4 cells per cm^2 in 24-well plates, which were incubated at 37 °C and 5% CO2 with replacement of the culture media every 3 days.
as §1

γ-secretase = test system: γ-secretase; design: method as in PMID 20009055, PMID 18450517; settings: at target brain tissue; cited from earlier work
[4] = design: method as in PMID 7736686; settings: cited from earlier work

Row | Compound | Percentage of hydrolysed FP out of the total amount of AEP-K-FP [1] [%] | LDH release, % of positive control (complete lysis) (HUVEC) | Apoptotic cells, % of total cell number (HPI staining) [2] [%] | Healthy cells, % of total cell number (HPI staining) [2] [%] | Necrotic cells, % of total cell number (HPI staining) [2] [%] | Increase of percentage permeated relative to free FP (bEnd.3 monolayer; bEnd.3 BBB model, 1 h) | Increase of percentage permeated relative to free FP (bEnd.3 monolayer; bEnd.3 BBB model, 4 h) [times] | Percentage permeated across in vitro BBB model (% of applied concentration) (bEnd.3 monolayer; 1 h) [%] | Percentage permeated across in vitro BBB model (% of applied concentration) (bEnd.3 monolayer; 4 h) [%] | γ-secretase enzyme amount, Mean ± SD [3] | LDH release, % of positive control (complete lysis) (bEnd.3 cells) | Required therapeutic concentration for significant pharmacological effect on γ-secretase activity (γ-secretase) | Biological half-life [4] [h] | Time to full excretion from the body [4] [h] | Penetration, % of initial payload concentration (bEnd.3 monolayer; bEnd.3 BBB model, time not stated at this place (discussion))
1 | CC(C)C[C@H](NC(=O)[C@H](CC(C)C)NC(=O)[C@H](CCCNC(=N)N)NC(=O)[C@H](CCCCN)NC(=O)[C@H](CCCNC(=N)N)NC(=O)[C@H](CC(C)C)NC(=O)[C@H](CCCCN)NC(=O)[C@H](CCCNC(=N)N)NC(=O)[C@H](CC(C)C)NC(=O)[C@H](CCCCNC(=O)C(C)c1ccc(-c2ccccc2)c(F)c1)NC(=O)C(C)c1ccc(-c2ccccc2)c(F)c1)C(=O)N[C@@H](CCCNC(=N)N)C(=O)O (stereo partly drawn) [AEP-K-FP] (X1-K(X1)LRKLRKRLLR-OH; N-terminus and C-terminus assumed) | 69.2 | less than 50% | ≤ 4.7 | ≥ 91 | ≤ 3.4 | more than 6 times | 4 | 16.3 | 35.9 | 14.6 pg/mL and 14.60 ± 3.51 pg/mL | less than 50% | – | – | – | –
2 | CC(C(=O)O)c1ccc(-c2ccccc2)c(F)c1 (stereo not drawn) [FP, Flurbiprofen] | – | – | – | – | – | – | – | ≤ 2.7 | ≤ 8.5 | 8.2 pg/mL and 8.20 ± 3.80 pg/mL | – | 150−250 μM | 4 | ≤ 24 | less than 9%
